Measured values from PMC10499838 (Nature Communications, 2023).

Target: RVFV Gn, WT sequence, transiently expressed in Expi293F cells (Rift Valley fever virus, GenBank …)
Experiment: flow cytometry on cells
Conditions: one partner purified

B1: RVFV-268 IgG1 (antibody, V domains shown)
VH: QVHLVESGGGVVQPGKSLRLSCAASGFIFNHFGIHWVRQSPGKGLEWVAVIWYDGSKKYFADSVKGRFSISRDNSQNTVYLQMNSLRTEDTAVYYCARERWSGHSYLDYWGHGALVTVSS
VL: SNVLTQPPSVSVAPGQTARISCGGNNLESKYVHWYQQKPGQAPVLVVYEDSGRPSGIPERFSGSNSGGTATLTISRVEAGDEADYYCQEWDTSSDYPVFGGGTKVTVL
notes: copies: 2 + 2
B1: binds.
